The data set in a line: soluble on expression in E. coli; label from the status in PepcDB or PDB records.
Regarding “MKVASGSTATAAAGPSCALKAGKTASGAGEVVRCLSEQSVAISRCAGGAGARLPALLDEQQVNVLLYDMNGCYSRLKELVPTLPQNRKVSKVEILQHVIDYIRDLQLELNSESEVGTPGGRGLPVRAPLSTLNGEISALTAEAACVPADDRILCRLEHHHHHH”, the “soluble on expression in E. coli” value is “soluble”. The result for “MKVDLNADAGESYGAFAYGHDREIFPLVSSANLACGFHGGSPGRILEAVRLAKAHGVAVGAHPGFPDLVGFGRREMALSPEEVYADVLYQIGALSAFLKAEGLPLHHVKPHGALYLKACRDRETARAIALAVKAFDPGLPLVVLPGTVYEEEARKAGLRVVLEAFPERAYLRSGQLAPRSMPGSWITDPEEAARRALRMVLEGKVEALDGGEVAVRADTLCIHGDNPNAPEVARAVREALEQAGVEVRAF” reads “soluble”; that for “MKVGIIGASGYTGSELLRILANHPEAEVIAASSRRYEGQKIWKVHRFLKGFYDLEFCSPELSNFGDCDLVFTAVPHGEAMKYVPQLLDSGIKVVDISADYRLDKETYERVYGKKHEGYVEAVYGLTELHREEIKKANLVANPGCYPTGTILAASPLAKLELIERVVFDCKSGITGAGESPSAFTHYPNLHESIVPYKITEHRHYYEMVQELGRFQSDIKISFTPQVYPGSRGILTNAHVFLRGELTREELYRIYEEFYEDSFFVRIQESVSLSQVRGSNFCDISIHPGEDRVVVVSAIDNLVKGASGQAVQNMNLMMGFDETLGLRTPPLFP”, “not soluble”; that for “MKVGIVLGTKPSNPLEFWVGVEKGKFLQLDDVVVVNSKIDGTNEEIKFYGIVQEVIKYLEGVELVYDAQLVNSGVVPANLAYMARVSVTRIEPEVFIPPTPGDYVFKAEGIDFEKALYYDNMKRKIPAGLTRNGEVVYLNYDFINGREGAHISISGMSGVATKTSYALFLLYSIFQKADDRTKIHGIIFNVKGKDLLWIDKKNKRFTKEHREAFEKLGLPPEPFKNVAFWAPPEQEWSEIPSSGERLEGVFPYKWSMKDFAQEGLLRFLFAEGDEGATSLHYVIDRVSEKLQQLAKESPGDVLLDENGQEINSLGDLLKLLHEVIEDRETKRDPDRYREWFGTAATATAYAFLRRFHHAASHCKHLVHGNKSRHIDWRSHQLNVIDISDLHGIAKMFVVGSILKKIFREKEETGNPYPKIFVVLDELNKYAPKDKWSPIKEILLDIAERGRSLGVILIGAQQTASEIEKRIVANAAVKVTGRLDSSEVLSKEYEFLTGNFRQRAIMLKKGTMILYQPDIPNPVMIKFPLAPWATKKEEVEEEVSAPKEFDQF”, “soluble”. “MKVIEVTHPIQSKQYITEDVAMAFGFFDGMHKGHDKVFDILNEIAEARSLKKAVMTFDPHPSVVLNPKRKRTTYLTPLSDKIEKISQHDIDYCIVVNFSSRFANVSVEDFVENYIIKNNVKEVIAGFDFTFGKFGKGNMTVLQEYDAFNTTIVSKQEIENEKISTTSIRQDLINGELQKANDALGYIYSIKGTVVQGEKRGRTIGFPTANIQPSDDYLLPRKGVYAVSIEIGTENKLYRGVANIGVKPTFHDPNKAEVVIEVNIFDFEDNIYGERVTVNWHHFLRPEIKFDGIDPLVKQMNDDKSRAKYLLAVDFGDEVAYNI”: the “soluble on expression in E. coli” value is listed as “not soluble”.

In the case of “MKVLILRPAELLSETIRRFREEGFDAYGCPFIKLIYTDFDVPEHDFAIVTSQNAARVLRERGVRLKRVIAIGKKTAELIEAEEVLLPSKFDSETLYEEFAEMLRGKRVVAFRSNAGSEAVKRLSEVADFREIQVYRIEKLQGEEQRREVEKVREGFYDAIVFSSSMIARSLLELCDEKCLEALKNIFVVAIGPPTAKVLAEKGIRAEIPEEYTFDGVIELLKSKKMLEHHHHHH”, the “soluble on expression in E. coli” value was “soluble”.

Take “MKVLITSGGTTEPIDNVRGISNFATGSLGKVTAENFLNAGHEVYLLAGLQAKLPEFTDRLTYIPIEGTHDLYEQMKNLVPDMDVVIHSMAVSDYRPIYMTGLENFTDKFSKEELLNFRPEKVGKISSKSDYQIMLLEKTPKIISYIKEWNPNVLLFGFKLLVGVEKSELLSVAREKLLTNHADFILANDLENIHGNDHQAFLVSKNHEITLKTKAEIADRLLKTSEELKND”: the “soluble on expression in E. coli” value was “soluble”.

“MKVLVPVKRLIDYNVKARVKSDGSGVDLANVKMSMNPFDEIAVEEAIRLKEKGQAEEIIAVSIGVKQAAETLRTALAMGADRAILVVAADDVQQDIEPLAVAKILAAVARAEGTELIIAGKQAIDNDMNATGQMLAAILGWAQATFASKVEIEGAKAKVTREVDGGLQTIAVSLPAVVTADLRLNEPRYASLPNIMKAKKKPLDEKTAADYGVDVAPRLEVVSVREPEGRKAGIKVGSVDELVGKLKEAGVI”: the “soluble on expression in E. coli” value was “soluble”. Under “MKVSLAGQTVDVKKILNEIPKRTVTAALLEGGEIVAVEEADDEHAERKLVRRHDVEGKVVFVTARPCLYCARELAEAGVAGVVYLGRGRGLGPYYLARSGVEVVEVHPDEPLGYDPVDRLDVLLTFGGNPYLTEEDVAARVYCLLTGRGFDADIAPAPENLSGRVEIMVTRGDPDEAVELLKEELPVFRIRRFLISGEFDRDELRERILEDIEPRILDPFAVRARIARAGAFSSSREAEVFIGDVLTSVGREVNLNDPRTVVTVDVLGPRVSVGVEKR” stands “soluble”; under “MKVTIIGASGRVGSATALLLAKEPFMKDLVLIGREHSINKLEGLREDIYDALAGTRSDANIYVESDENLRIIDESDVVIITSGVPRKEGMSRMDLAKTNAKIVGKYAKKIAEICDTKIFVITNPVDVMTYKALVDSKFERNQVFGLGTHLDSLRFKVAIAKFFGVHIDEVRTRIIGEHGDSMVPLLSATSIGGIPIQKFERFKELPIDEIIEDVKTKGEQIIRLKGGSEFGPAAAILNVVRCIVNNEKRLLTLSAYVDGEFDGIRDVCIGVPVKIGRDGIEEVVSIELDKDEIIAFRKSAEIIKKYCEEVKNL”, “soluble”; under “MKVTLSVLKADIGSVGGHTLPSRKVLAKVEEVVREEVGRLLLDAYVFHIGDDIVLLLSHTRGVRNQEVHALAWKAFREGTEVAKAEGLYGAGQDLLKDAFTGNLHGLGPQVAEMEFTERPAEPFMVLAADKTEPGAFNLPLYLAFADPMYSSGLLLSPELRPGFRFRIMDLAQTERDSYIELDAPERLYDIATLLRDSHRFAIESIWSRKHGEQAAVVSTTRLRNIAGRYVGKDDPVAIVRTQKIFPATEEFGPVFALAPYVAGDTRGSHHMPLMPVRANTPASTFFCVPMVCGLAFSLREGRLSEPVDLFADPVWEAVRAKVVEKAQEMRRQGFYGPAMLPMEELEYTGIAERLKALEREFS”, “soluble”.

Take “MKVWRVEKREEGWRLDQFLKEKTPSWISRSMIQKAIKEGKVKVNGQIKKPSYKLKEGEIVEVDLPEKPQEATVQPEEIELKVLYEDRDIIVIDKPGDMIVHPVPSKLSGTLVNALLHHCKDLQGVGGKLRPGIVHRLDKETSGVIVVAKNDFAHQSLSKQFKDRKVKKTYILLVKGKMKNDEGVIDLPLARHPVLRIKMAVVETGKEAITEYRVLKRFDDVATLVLAFPKTGRTHQIRVHMKSLGHPIMGDKIYGKPKEDEIFGIKRQMLHALKLGFFHPRTGEWMEFVSPLPEDFKEAIRRIHEYVRERS”: the “soluble on expression in E. coli” value was “soluble”.

As to “MKVYLHFSPQFFANTYLIGNEITKEAVIIDPAKITEKMIHQIEKNEFNLKAVLLTHDLEHPYETGLNTILKIYSPKVYAGSCFSENVTINTLRGDGCIDVAGYSVRYFAIPAHSSYSYMFQIENMVFTGTSLSAGMIGQTSNMYAERTLRNILKTKLMCFEDNLIIMPFYGPPTSIGVERKYNASFFQDFEKKPFLEHHHHHH”, the “soluble on expression in E. coli” value was “soluble”. The result for “MKYDILIAGVGGQGVVLASRILALSAMKAGFRVSTAETIGMSQREGSVSSHVRIGDEISGSLIPEGKADLLIGLEPAETIRNLPFLKEGGKIIVNSHAIPPASKPPGSPEYNPGALLSYLKTGFPDFFCLDFTRLAEEAGTYRAANVAMIGAAAGMGILPFSKEIVLALMEAEIPEKHRAVNRAAFEEAVKKIK” reads “not soluble”. The result for “MKYFQEADIAVTVCDKTGKIIDMNEQSRQVNLKPGQELIGSNVLDCHPEPARSMLEEMMRQERKHVYTIEKNGRKKLIYQIPWYEKGEYMGFLELSMVIPFEMEHKIRTPKPAND” reads “not soluble”; that for “MKYLSAKSKLNIDAQDGGFTTTLLSYCLENGILDAVVVVGDKNWKPVAYLATTPTELLKSTKSKYSISPNNKLLEYATENYDKVGLVGLPCHILGGLQFDLTLKVGLFCTKNFYYDTIKSIIKERFGVNIDEVAKMNITKGKFVVETLKKKGFAGTEKVVYEIPIKEIEKLCNLGCRVCTDFSAKYADVSVGSVGSEDGWNTVIVRNKMVEDIINEMAEKGLIEVKETVDIKAIEKLENIKKKNEEINKCSAYFAVCPALFLEHHHHHH”, “not soluble”. Under “MKYMIPDEEFIRREGVPITKEEIRAVSIGKLNLNKDDVVVDVGCGSGGMTVEIAKRCKFVYAIDYLDGAIEVTKQNLAKFNIKNCQIIKGRAEDVLDKLEFNKAFIGGTKNIEKIIEILDKKKINHIVANTIVLENAAKIINEFESRGYNVDAVNVFISYAKKIPSGHMFLAKNPITIIKAVR” stands “soluble”; under “MKYYHHHHHHDYDIPTTENLYFQGAMAFDGEDEVTGPDADRARAAAVQAVPGGTAGEVETETGEGAAAYGVLVTRPDGTRVEVHLDRDFRVLDTEPADGDGG”, “soluble”; under “MKYYRRALYDKFVHFYLVISDDGSSEAQLRGKMGGLVRKARKKISPDWPKEEQIHQLLQLFYGDWGFHCDPEDYFYARNLYLPYVFEHRQGMPVTLGAMVFYLAEALDLPIYPVNFPTQLILRAEVRDEVAFIDPWDGTYISQEKLQQLYEGAFGFGAKIQPEELDRADLSLLYSRFEQLAKNALIREEHNDMAYHYIKNLMITDAENPYHIRDRGLVLAQMGAYPSALKDLEFFVEHCPKDPTAAFIRTQLLELKGEINKDTFPLHLEHHHHHH”, “not soluble”.

Turning to “MLAAKNILNRSSLSSSFRIATRLQSTKVQGSVIGIDLGTTNSAVAIMEGKVPKIIENAEGSRTTPSVVAFTKEGERLVGIPAKRQAVVNPENTLFATKRLIGRRFEDAEVQRDIKQVPYKIVKHSNGDAWVEARGQTYSPAQIGGFVLNKMKETAEAYLGKPVKNAVVTVPAYFNDSQRQATKDAGQIVGLNVLRVVNEPTAAALAYGLEKSDSKVVAVFDLGGGTFDISILDIDNGVFEVKSTNGDTHLGGEDFDIYLLREIVSRFKTETGIDLENDRMAIQRIREAAEKAKIELSSTVSTEINLPFITADASGPKHINMKFSRAQFETLTAPLVKRTVDPVKKALKDAGLSTSDISEVLLVGGMSRMPKVVETVKSLFGKDPSKAVNPDEAVAIGAAVQGAVLSGEVTDVLLLDVTPLSLGIETLGGVFTRLIPRNTTIPTKKSQIFSTAAAGQTSVEIRVFQGERELVRDNKLIGNFTLAGIPPAPKGVPQIEVTFDIDADGIINVSARDKATNKDSSITVAGSSGLSENEIEQMVNDAEKFKSQDEARKQAIETANKADQLANDTENSLKEFEGKVDKAEAQKVRDQITSLKELVARVQGGEEVNAEELKTKTEELQTSSMKLFEQLYKNDSNNNNNNNGNNAESGETKQ”, the “soluble on expression in E. coli” value is “not soluble”.

Take “MLAMVNKVLDWIRSLFWKEEMELTLVGLQNSGKTTFVNVIASGQFTEDMIPTVGFNMRKITKGNVTIKLWDIGGQPRFRSMWERYCRGVNAIVFMVDAADEEKLEASRNELMQLLDKPQLDAIPVLVLGNKKDLPGALDERQLIERMNLSSIQNREICCYSISCKEKENIDITLQWLIDHSKAQR”: the “soluble on expression in E. coli” value is listed as “not soluble”. The result for “MLAPWQPLLEWWFGWGTSAQAVADEKSTLWFGKHYDADAHALFGDLVEHALAGGLEEWQQTPQGWLGLLILLDQLPRMIYRDTPRAFEGDRRAQVVAMQGLQKGWDYQLLPIQRVFVLLVLEHAEVLDWQNLCVERYRMLLDEQPEANRRLFEGFLDYAEQHQRVIARFGRFPHRNLVLERPSTSEEMDFLLEPGSRF” reads “not soluble”.

Source of the values: the DeepSol protein solubility set.
